From article PMC3686915

Biological target: NFATc2 full length;cJun full length (;, UniProt Q13469-2;P05412 1-921;1-331, |)
Assay: DNA pull-down, Western blot

Binder: GATAATATTTTTCCAGAATTACACAAATTCTGGAAAAATATTATC (structured_DNA, 5' biotin) [-45 NFAT hairpin]
- binding result: binds
